PMC7781310

Biological target: sACE2_(2).v2.4-IgG1 (human) (UniProt Q9BYF1)
Assay: BLI

Row | Substance | Kd [nM] | koff [s⁻¹]
1 | SARS-CoV-2 RBD-8h N501Y (from UniProt P0DTC2 333-529) (domain or fragment) | < 0.1 | –
2 | SARS-CoV-2 RBD-8h Y449K (from UniProt P0DTC2 333-529) (domain or fragment) | – | 0.004
